Our source for the Kd values is PMC6556216.

This test has as its target Maporal virus (MPRLV) Gn/Gc virus-like particles (Maporal virus (MPRLV)). In words: BLI. For orientation: BLI is a label-free optical method that tracks binding on a fibre tip over time.

A word on the Kd: it is the free concentration of one partner at which half of the binding sites on the other are occupied at equilibrium, for simple one-to-one binding. A higher Kd goes with lower affinity. Regarding “soluble PCDH1 EC1-EC2 (sEC1–2) (from UniProt Q08174-1 58-284) (domain or fragment)”, the Kd is 7 nM. This counts as single-digit nanomolar.
